The source of these data is paper PMC4226571, “The E6AP Binding Pocket of the HPV16 E6 Oncoprotein Provides a Docking Site for a Small Inhibitory Peptide Unrelated to E6AP, Indicating Druggability of E6” (PLoS ONE, 2014).

What all share (experiment): mammalian two-hybrid
Holding throughout (conditions): HeLa cells; read off a plot

Experiment [1] addresses E6APpep fused to the GAL4 DNA binding domain.
For experiment [2], the target named is pep11** fused to the GAL4 DNA binding domain.
The target in experiment [3] is E6APpep fused to the GAL4 DNA binding domain. The source holds these as a separate data set.
For experiment [4], the target named is pep11** fused to the GAL4 DNA binding domain. This is another data set of the same source.

Consider “wildtype HPV16 E6 fused to the VP16 transcriptional activation domain (from UniProt P03126) N105A”, for which the percent of parent came to 80% in experiment [1] and 110% in experiment [2].
As to “wildtype HPV16 E6 fused to the VP16 transcriptional activation domain (from UniProt P03126) R129E”, the values for the percent of parent in experiment [1] and in experiment [2] were 110% and 120%, respectively.
In the case of “wildtype HPV16 E6 fused to the VP16 transcriptional activation domain (from UniProt P03126) S74R”, the percent of parent in experiment [1] came out at 70%; in experiment [2], 64%.
The like results for “wildtype HPV16 E6 fused to the VP16 transcriptional activation domain (from UniProt P03126) D64A” were, in that order, 64% and 60%.
Consider “wildtype HPV16 E6 fused to the VP16 transcriptional activation domain (from UniProt P03126) R129A”, for which the percent of parent in experiment [1] came out at 290%; in experiment [2], 190%.
Take “wildtype HPV16 E6 fused to the VP16 transcriptional activation domain (from UniProt P03126) L38E”: the percent of parent in experiment [1] was 170%; in experiment [2], 140%.
The matching figures for “wildtype HPV16 E6 fused to the VP16 transcriptional activation domain (from UniProt P03126) I23Q”: 66% and 70%.
On to “wildtype HPV16 E6 fused to the VP16 transcriptional activation domain (from UniProt P03126) D44R”, for which the values for the percent of parent in experiment [1] and in experiment [2] were 67% and 45%, respectively.
For the substance “wildtype HPV16 E6 fused to the VP16 transcriptional activation domain (from UniProt P03126) R39A”, the percent of parent in experiment [1] was 78%; in experiment [2], 89%.
For “wildtype HPV16 E6 fused to the VP16 transcriptional activation domain (from UniProt P03126) R102E”, the percent of parent in experiment [1] came out at 43%; in experiment [2], 10%.
On to “wildtype HPV16 E6 fused to the VP16 transcriptional activation domain (from UniProt P03126) Y32A”, for which the percent of parent turned out to be 53% in experiment [1] and 7% in experiment [2].
For the substance “wildtype HPV16 E6 fused to the VP16 transcriptional activation domain (from UniProt P03126) C140E”, the percent of parent in experiment [1] turned out to be 140%; in experiment [2], 150%.
Regarding “wildtype HPV16 E6 fused to the VP16 transcriptional activation domain (from UniProt P03126) H126E”, the percent of parent in experiment [1] was determined as 63%; in experiment [2], 98%.
The like results for “wildtype HPV16 E6 fused to the VP16 transcriptional activation domain (from UniProt P03126) L50E” were, in that order, 42% and 5%.
Take “wildtype HPV16 E6 fused to the VP16 transcriptional activation domain (from UniProt P03126) T133A”: the percent of parent in experiment [1] stood at 150%; in experiment [2] it was 130%.
Take “wildtype HPV16 E6 fused to the VP16 transcriptional activation domain (from UniProt P03126) I128A”: the percent of parent was determined as 52% in experiment [1] and 17% in experiment [2].
Consider “wildtype HPV16 E6 fused to the VP16 transcriptional activation domain (from UniProt P03126) K108A”, for which the percent of parent in experiment [1] was 93%; in experiment [2] it was 140%.
For “wildtype HPV16 E6 fused to the VP16 transcriptional activation domain (from UniProt P03126) Y70A”, the percent of parent in experiment [1] stood at 99%; in experiment [2], 57%; in experiment [3], 99%; in experiment [4], 57%.
As for “wildtype HPV16 E6 fused to the VP16 transcriptional activation domain (from UniProt P03126) L119E”, the percent of parent in experiment [1] amounted to 88%; in experiment [2], 100%.
Take “wildtype HPV16 E6 fused to the VP16 transcriptional activation domain (from UniProt P03126) K121A”: the percent of parent was determined as 120% in experiment [1] and 170% in experiment [2].
The matching figures for “wildtype HPV16 E6 fused to the VP16 transcriptional activation domain (from UniProt P03126) K34E”: 74% and 120%.
Consider “wildtype HPV16 E6 fused to the VP16 transcriptional activation domain (from UniProt P03126) H24R”, for which the percent of parent in experiment [1] stood at 79%; in experiment [2] it was 57%.
Turning to “wildtype HPV16 E6 fused to the VP16 transcriptional activation domain (from UniProt P03126) L100A”, the percent of parent in experiment [1] and in experiment [2] was 130% each time.
For the substance “wildtype HPV16 E6 fused to the VP16 transcriptional activation domain (from UniProt P03126) H24Q”, the figures for the percent of parent in experiment [1] and in experiment [2] were 87% and 74%, respectively.
Take “wildtype HPV16 E6 fused to the VP16 transcriptional activation domain (from UniProt P03126) I128E”: the percent of parent in experiment [1] was 48%; in experiment [2] it was 10%.
The like results for “wildtype HPV16 E6 fused to the VP16 transcriptional activation domain (from UniProt P03126) Q107A” were, in that order, 79% and 100%.
The matching figures for “wildtype HPV16 E6 fused to the VP16 transcriptional activation domain (from UniProt P03126) D120K”: 100% and 91%.
The like results for “wildtype HPV16 E6 fused to the VP16 transcriptional activation domain (from UniProt P03126) R48A” were, in that order, 98% and 110%.
Turning to “wildtype HPV16 E6 fused to the VP16 transcriptional activation domain (from UniProt P03126) R55A”, the percent of parent turned out to be 64% in experiment [1], 130% in experiment [2], 64% in experiment [3] and 130% in experiment [4].
For “wildtype HPV16 E6 fused to the VP16 transcriptional activation domain (from UniProt P03126) R40A”, the percent of parent was 110% in experiment [1] and 120% in experiment [2].
For the substance “wildtype HPV16 E6 fused to the VP16 transcriptional activation domain (from UniProt P03126) R131E”, the figures for the percent of parent in experiment [1] and in experiment [2] were 41% and 49%, respectively.
As to “wildtype HPV16 E6 fused to the VP16 transcriptional activation domain (from UniProt P03126) D64H”, the percent of parent in experiment [1] was 64%; in experiment [2], 57%.
For “wildtype HPV16 E6 fused to the VP16 transcriptional activation domain (from UniProt P03126) H126A”, the figures for the percent of parent in experiment [1] and in experiment [2] were 80% and 110%, respectively.
With “wildtype HPV16 E6 fused to the VP16 transcriptional activation domain (from UniProt P03126) K122A”, the percent of parent in experiment [1] was determined as 110%; in experiment [2], 170%.
The like results for “wildtype HPV16 E6 fused to the VP16 transcriptional activation domain (from UniProt P03126) Q35A” were, in that order, 110% and 100%.
Consider “wildtype HPV16 E6 fused to the VP16 transcriptional activation domain (from UniProt P03126) L67A”, for which the percent of parent was found to be 48% in experiment [1] and 46% in experiment [2].
As for “wildtype HPV16 E6 fused to the VP16 transcriptional activation domain (from UniProt P03126) D120A”, the percent of parent amounted to 120% in experiment [1] and 100% in experiment [2].
With “wildtype HPV16 E6 fused to the VP16 transcriptional activation domain (from UniProt P03126) V53E”, the percent of parent in experiment [1] was 45%; in experiment [2] it was 7%.
For the substance “wildtype HPV16 E6 fused to the VP16 transcriptional activation domain (from UniProt P03126) C51F”, the percent of parent in experiment [1] and in experiment [2] was 110% throughout.
In the case of “wildtype HPV16 E6 fused to the VP16 transcriptional activation domain (from UniProt P03126) Q35R”, the percent of parent in experiment [1] stood at 120%; in experiment [2] it was 100%.
In the case of “wildtype HPV16 E6 fused to the VP16 transcriptional activation domain (from UniProt P03126) V62A”, the figures for the percent of parent in experiment [1] and in experiment [2] were 63% and 61%, respectively.
